Measurements published in US20250295796A1, “CELL PENETRATING POLYPEPTIDES (CPPS) AND THEIR USE IN HUMAN THERAPY” (RDP PHARMA AG, priority 2021, published 2025).

Key:
[1] = Toxicology experiments and various tumor models, cardiotoxicity; assay type: in vivo
[2] = tested on: Human hepatocellular carcinoma cell lines; assay: Monolayer assay, human hepatocellular carcinoma cell lines, 96h treatment (geomean of three lines); assay type: cell-based
Procedure: (§1) Monolayer Assay Propidium Iodid (PI). Cells were harvested from exponential phase cultures, counted and depending on the cell line 3.000 to 20.000 cells were plated in 96-well flat-bottom microtiter plates After a 24 h recovery period to allow cells to resume exponential growth, 10 μl of culture medium (four control wells/plate) or culture medium with the test compound were added by a liquid handling robotic system and treatment continued for four days. Compounds were applied in half-log increments at 10 concentrations in duplicate. Three independent experiments were performed. Cells were then washed with 200 μl PBS to remove dead cells followed by addition of 200 μl of a solution containing 7 μg/ml propidium iodide (PI) and 0.1% (v/v) Triton X-100. After an incubation period of 1-2 h at room temperature, fluorescence (FU) was measured using the Cytofluor 4000 microplate reader (excitation λ=530 nm, emission λ=620 nm) to quantify the amount of attached viable cells. Concentrations required for 50% inhibition of cell growth (IC50) were calculated by non-linear regression (log[conc. of inhibitor]versus response (% T/C)) using the analysis software GraphPad Prism®, Prism 5 for windows, version 5.01 (GraphPad Software Inc., CA).
CROMOC36—in vitro activity Human hepatocellular carcinoma cell lines IC50 values of CROMOC36 and Sorafenib, 96h treatment. […] The individual results for CROMOC36 are included in FIG. 24. […] The individual results for Sorafenib are included in (FIG. 24).

[3] = tested on: 4T1 breast tumor lung metastasis; assay: Organ-distribution in 4T1 breast tumor lung metastasis mouse model; conditions: four hours after i.v. 8 mg/kg, ex vivo total photon flux
Procedure: In vivo organ-distribution of CROMOC36-AF680 molecules in tumor containing mice. First orthotopic allograft 4T1 breast tumor lung metastasis mouse model was analyzed for CROMOC-AF680 distribution in vivo (FIG. 19A). Four hours after i.v. injection of 8 mg/kg of the CROMOC molecule labeled with the AF680 fluorescent dye, lungs containing 4T1cell metastasis were isolated and fluorescence intensity was assessed ex vivo (total photon flux shown on X-axis logarithmic scale).

[4] = tested on: M5076 ovarian reticulum sarcoma tumor cell line; assay: M5076 artificial hepatic metastasis model, i.v. route
[5] = tested on: PAXF 1657L; assay: Propidium iodide monolayer assay, PAXF 1657L; assay type: cell-based, human; conditions: four days
Procedure: as §1, with “Concentrations required for 50% inhibition of cell growth (IC50) were calculated by non-linear regression (log[conc. of inhibitor]versus response (% T/C)) using the analysis software GraphPad Prism®, Prism 5 for windows, version 5.01 (GraphPad Software Inc., CA).” left out
(§2) CROMOC36—in vitro activity Human pancreatic carcinoma cell lines. […] Antitumor activity was assessed after four days of CROMOC36 treatment using a propidium iodide based monolayer proliferation assay. […]

[6] = tested on: PATU8902; assay: Propidium iodide monolayer assay, PATU8902; assay type: cell-based, human; conditions: PATU8902, four days
Procedure: as §1, with “Concentrations required for 50% inhibition of cell growth (IC50) were calculated by non-linear regression (log[conc. of inhibitor]versus response (% T/C)) using the analysis software GraphPad Prism®, Prism 5 for windows, version 5.01 (GraphPad Software Inc., CA).” left out
as §2

[7] = tested on: IMR32 human neuroblastoma xenograft; assay: IMR32 human neuroblastoma xenograft model; assay type: in vivo, mice; conditions: q14dx2
Description: FIG. 11: IMR32 s.c. implanted. Treatment on xenograft mice with advanced tumors (volume >50 mm^3). Variation in tumor volume expressed as percentage with respect to initial volume (day 0; designated as 100%). Final measurements for vehicle (PBS) and Doxorubicin groups were taken on day 42. For the remaining groups, final measurements were taken on day 63, the termination day of the experiment. Growth reduction compared to controls on day 42 (p<0.01).
The aim of this study was to assess the in vivo efficacy of CROMOC36 on a IMR32 human neuroblastoma xenograft model. CROMOC36 was administered subcutaneously (s.c.) at intervals of two weeks (q14dx2) at two different doses (32 mg/Kg) and also in combination with doxorubicin administered intravenously (i.v.) (32/kg CROMOC36+4+4 mg/Kg doxorubicin, s.c and i.v., q14dx2). Doxorubicin was also used alone as a reference compound (8 mg/kg, i.v., q14dx2). Vehicle was PBS.

[8] = tested on: DNA double strand breaks (Phospho-H2AX, Phospho-H3); assay: Immunohistochemistry of liver specimens after single IV treatment; assay type: in vivo, Male Sprague Dawley Rats; conditions: samples after 13-15 days
Description: FIG. 8: Immunohistochemistry (IHC) analysis paraffin embedded liver specimens of Male Sprague Dawley Rats after single IV treatment with CROMOC36. Samples were collected after 13-15 days and IHC was used to assess the Histone surrogate-markers for DNA double strand breaks Phospho-H2AX and Phospho-H3 for analyzing the persistence of DNA double stand breaks (DSBs) at very high CROMOC concentrations in tumors in comparison to the KI67marker.
As a proof of the nuclease activity in vivo an Immunohistochemistry (IHC) analysis of paraffin embedded liver specimens of Male Sprague Dawley Rats after single IV treatment with CROMOC36.

[9] = tested on: human pancreatic tumor cell lines; assay: Propidium iodide based monolayer proliferation assay, panel of 13 human pancreatic tumor cell lines
Procedure: as §1
CROMOC36—in vitro activity Human pancreatic carcinoma cell lines. The aim of this study was to investigate the antitumor activity of CROMOC36 in vitro on a panel of 13 human pancreatic tumor cell lines. Antitumor activity was assessed after four days of CROMOC36 treatment using a propidium iodide based monolayer proliferation assay. Up to four experiments were performed in each cell line, testing CROMOC36 at ten concentrations in half-log increments up to 1 μM. Taxol, an antitumor agent commonly used for the treatment of pancreatic cancer, was used as a reference compound and tested in half-log steps up to 0.3 μM.

[10] = tested on: HEP3B; assay: Monolayer assay, 96h treatment, HEP3B; assay type: cell-based, human
Procedure: as §1
CROMOC36—in vitro activity Human hepatocellular carcinoma cell lines IC50 values of CROMOC36 and Sorafenib, 96h treatment. […]

[11] = tested on: PATU8988T; assay: Propidium iodide monolayer assay, PATU8988T; assay type: cell-based, human; conditions: four days
Procedure: as §1, with “Concentrations required for 50% inhibition of cell growth (IC50) were calculated by non-linear regression (log[conc. of inhibitor]versus response (% T/C)) using the analysis software GraphPad Prism®, Prism 5 for windows, version 5.01 (GraphPad Software Inc., CA).” left out
as §2

[12] = tested on: MIAPACA2; assay: Propidium iodide monolayer assay, MIAPACA2; assay type: cell-based, human; conditions: MIAPACA2, four days
Procedure: as §1, with “Concentrations required for 50% inhibition of cell growth (IC50) were calculated by non-linear regression (log[conc. of inhibitor]versus response (% T/C)) using the analysis software GraphPad Prism®, Prism 5 for windows, version 5.01 (GraphPad Software Inc., CA).” left out
as §2

B1: CROMOC36: single chain PvuII endonuclease fused at its C-terminus to DDM36, PEGylated final product used in the Examples (protein)
chain: MSHPDLNKLLELWPHIQEYQDLALKHGINDIFQDNGGKLLQVLLITGLTVLPGREGNDAVDNAGQEYELKSINIDLTKGFSTHHHMNPVIIAKYRQVPWIFAIYRGIAIEAIYRLEPKDLEFYYDKWERKWYSDGHKDINNPKIPVKYVMEHGTKIYGSGGSGGSSHPDLNKLLELWPHIQEYQDLALKHGINDIFQDNGGKLLQVLLITGLTVLPGREGNDAVDNAGQEYELKSINIDLTKGFSTHHHMNPVIIAKYRQVPWIFAIYRGIAIEAIYRLEPKDLEFYYDKWERKWYSDGHKDINNPKIPVKYVMEHGTKIYGNSGSGKKKKKGKGSGLGSGKKKDPLGSGLGSGKKKKKGKGSGLGSGKKKDPLGST
modifications: PEGylated; peptide, CROMOC36
With B1 the cardiotoxic effects [1] was “no cardiotoxic effects were observed”, the “potency compared to Sorafenib” value ([2]; geomean IC50 of three HCC cell lines) was “over 300 fold” and the IC50 ([2]; three HCC cell lines, 96h treatment) was 14.1 nM. The “enrichment in lungs of breast tumor metastasis containing animals versus tumor free animals” value [3] was “more than 10.000 ×”, the “% ILS (mean survival time versus control group)” value ([4]; CROMOC36 16 mg/kg i.v. q7dx3, Doxorubicin 6 mg/kg q4dx3 (MTD)) was 68% and the “antimetastatic activity in Liver M5076 allograft” value ([4]; i.v. route, 16 mg/kg q7dx3) was “strong antimetastatic activity”. For the same molecule, the IC50 [5] was 4.73 nM, the IC50 [6] was 2.33 nM and the “tumor growth inhibition compared to controls” value ([7]; CROMOC36 32/kg s.c. + doxorubicin 4+4 mg/Kg i.v.) was 89%. The “tumor growth inhibition (TGI) compared to controls” value ([7]; single agent, CROMOC36 32 mg/Kg s.c., doxorubicin 8 mg/kg i.v.) was 82%, the “DNA double strand breaks in liver (Phospho-H2AX, Phospho-H3 IHC)” value [8] was “DSBs are induced” and the IC50 ([9]; 13 pancreatic cell lines, four days treatment, read-out: geomean IC50) was 45.9 nM. For the same molecule, the antitumor activity ([9]; on five of the cell lines tested, up to 1 μM) was “no activity or only marginal activity”, the IC50 [10] was 12.2 nM and the IC50 [11] was 2.79 nM. For the same molecule, the IC50 [12] was about 10 nM.
